# Ends that are not written are not given here. * marks the point of attachment. For = O=C*
# Biological target: the molecule itself
# Test: SEC; 100 µg/ml PSMα3-FITC on Superdex 200 10/300GL equilibrated with PBS; OD492 nm
protein,measurement,value
"For-MEFVAKLFKFFKDLLGKFLGNN (also: FITC label, site not given here, labeled by incubating 1 mg/ml PSMα3 with 100 µg/ml FITC in 0.1 M sodium carbonate buffer pH 9.6; also called PSMα3-FITC) [FITC-labeled PSMα3]",binding result,binds

# From publication PMC3310821, “Inactivation of Staphylococcal Phenol Soluble Modulins by Serum Lipoprotein Particles” (PLoS Pathogens, 2012)
